Measured values taken from article doi:10.1101/2020.12.03.409995 (2020).

How the values were obtained:
[1] = molecular target: T1, Biotin-Aβ42 oligomers (human, UniProt P05067 672-713, biotin (position not given)); assay: BLI; koff1 (first site)
[2] = molecular target: T1, Biotin-Aβ42 oligomers; assay: BLI; koff2 (second site)

B1: wild-type sTREM2 (TREM2 ectodomain, residues 19-143, His-tagged) (domain or fragment)
chain: HNTTVFQGVAGQSLQVSCPYDSMKHWGRRKAWCRQLGEKGPCQRVVSTHNLWLLSFLRRWNGSTAITDDTLGGTLTITLRNLQPHDAGLYQCQSLHGSEADTLRKVLVEVLADPLDHRDAGDLWF
koff [1]: 0.435 s⁻¹ | koff [2]: 0.00772 s⁻¹
